Patent publication US20120258482

Molecular target: purified recombinant 6x His-PCNA
Sequence (chain, as listed by the source): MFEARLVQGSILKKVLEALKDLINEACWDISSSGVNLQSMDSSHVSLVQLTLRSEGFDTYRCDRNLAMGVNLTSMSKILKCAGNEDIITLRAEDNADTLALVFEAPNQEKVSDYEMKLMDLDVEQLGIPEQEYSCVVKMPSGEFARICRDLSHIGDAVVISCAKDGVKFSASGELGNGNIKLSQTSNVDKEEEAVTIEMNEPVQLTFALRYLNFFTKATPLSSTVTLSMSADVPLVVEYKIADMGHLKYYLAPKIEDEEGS

B1: Flag-tagged C6orf211 protein fusion (Flag-Arm1) (protein)
chain: MAVVPASLSGQDVGSFAYLTIKDRIPQILTKVIDTLHRHKSEFFEKHGEEGVEAEKKAISLLSKLRNELQTDKPFIPLVEKFVDTDIWNQYLEYQQSLLNESDGKSRWFYSPWLLVECYMYRRIHEAIIQSPPIDYFDVFKESKEQNFYGSQESIIALCTHLQQLIRTIEDLDENQLKDEFFKLLQISLWGNKCDLSLSGGESSSQNTNVLNSLEDLKPFILLNDMEHLWSLLSNCKKTREKASATRVYIVLDNSGFELVTDLILADFLLSSELATEVHFYGKTIPWFVSDTTIHDFNWLIEQVKHSNHKWMSKCGADWEEYIKMGKWVYHNHIFWTLPHEYCAMPQVAPDLYAELQKAHLILFKGDLNYRKLTGDRKWEFSVPFHQALNGFHPAPLCTIRTLKAEIQVGLQPGQGEQLLASEPSWWTTGKYGIFQYDGPL
For B1, the “PCNA-dependent carboxyl methyltransferase activity (vapor diffusion assay)” value was “Significant levels of PCNA-dependent carboxyl methyltransferase activity was detected in the anti-Flag Flag-Arm1 expressing extracts, and this activity was not present in the immunoprecipitates from control extracts”.
